# Test results taken from patent US11357847B2, “Modified HSV gD protein and vaccine containing same” (KM Biologics Co., Ltd., priority 2017, dated 2022).
# Substitutions are numbered along the chain they refer to.
# T1: HVEM (Homo sapiens, UniProt Q92956)
# T1 sequence (Q92956 39-202): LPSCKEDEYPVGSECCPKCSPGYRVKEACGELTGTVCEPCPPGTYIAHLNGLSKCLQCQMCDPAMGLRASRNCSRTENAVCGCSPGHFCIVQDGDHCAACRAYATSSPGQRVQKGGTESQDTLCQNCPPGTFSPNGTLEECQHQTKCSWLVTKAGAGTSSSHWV
# B1: gD1-315v5-55: gD1-315 with glycochains at SC-A, SC-F, linked to T cell epitope peptide DP5 (protein)
# chain: KYALADPSLKMADPNRFRGKNLPVLDQLTDPPGVKRVYHIQPSLEDPFQNASIPITVYYAVLERACRSVLLHAPSEAPQIVRGASDEARKHTYNLTIAWYRMGDNCAIPITVMEYTECPYNKSLGVCPIRTQPRWSYYDSFSAVSEDNLGFLMHAPAFETAGTYLRLVKINDWTEITQFILEHRANASCKYALPLRIPPAACLTSKAYQQGVTVDSIGMLPRFIPENQRTVALYSLKIAGWHGPKPPYTSTLLPPELSDTTNATQPELVPEDPEDSALLEDPAGTVSSQIPPNWHIPSIQDVAPHHAPAAPSNPGGPGPGIAFWVRRRAQMAPKPLRIAFWVRRRAQMAPKPLRHHHHHH
# modifications: left off: small tags and cut ends
# B2: gD1-315v3-55: gD1-315 with glycochain at SC-F, linked to two DP5 T cell epitope peptides (protein)
# chain: B1 chain with N186R
# modifications: left off: small tags and cut ends
# Legend:
# gD1-315 = gD1-315 (Human herpesvirus 2, UniProt P03172, R52Q); conditions: compared to wild-type gD immune serum; FIG. 33
# Sequence of gD1-315 (P03172 26-340 R52Q): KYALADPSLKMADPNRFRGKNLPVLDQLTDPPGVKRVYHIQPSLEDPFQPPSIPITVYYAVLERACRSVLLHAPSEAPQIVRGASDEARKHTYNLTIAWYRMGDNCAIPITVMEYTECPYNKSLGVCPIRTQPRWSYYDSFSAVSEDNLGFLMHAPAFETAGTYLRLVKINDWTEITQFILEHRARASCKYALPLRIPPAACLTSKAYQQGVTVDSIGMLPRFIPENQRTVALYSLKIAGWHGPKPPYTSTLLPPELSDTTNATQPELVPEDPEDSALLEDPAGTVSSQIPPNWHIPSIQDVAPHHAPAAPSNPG
# Procedure: IgG was purified from serum and analyzed by competitive methods using SPR (Biacore, Inc.) to make antibody amounts uniform.
# The anti-gD2 antibody competition test was performed using Biacore 3000 (GE Healthcare), where, in all experiments, HBS-EP buffer (GE Healthcare) was used, the temperature was set to 25° C., and the flow rate was set to 20 μL/min. CMS senor chip (GE Healthcare) was used as the sensor chip, and the experiment was performed based on the recommended protocol. gD1-315-His was immobilized at about 300 RU on the chip surface, and for chip regeneration, glycine-hydrochloride buffer of 0.1 M and pH 2.0 was used and the chip was washed twice at a flow rate of 30 μL/min for 30 seconds. Procedures for competition and calculation of the competition rate were as follows. 10 μg/mL of each anti-gD2 antibody or buffer was applied to the chip under a condition of binding for 1 minute and dissociation for 2.5 minutes. 20 μg/mL of each immune serum purified by IgG was then applied under a condition of binding for 1 minute and dissociation for 5 minutes. After buffer application, the RU detected when immune serum was applied was set to 100%, and the decrease in immune serum response by anti-gD2 antibody application was calculated as the competitive rate.
# HVEM = target: T1, HVEM; test: Reactivity of HVEM with gD variants (competitive ELISA); format: binding; conditions: compared to the original gD1-315; FIG. 14
# Procedure: From the above discussion, it can be strongly inferred that each variant takes the structure in which FR1 is bound to the receptor binding region. The reactivity of HVEM with each variant was then measured by competitive ELISA.
# HVEM can bind gD for the first time when FR1 binds to the receptor binding region and takes a characteristic hairpin structure. […] FR3-deficient gD1-275v5-55 promoted FR1 binding and further HVEM binding over other gD1-315-based variants in which FR3 was present.
# [1] = system: various anti-gD2 antibodies; test: Reactivity of gD variants with anti-gD2 antibodies (competitive ELISA); format: binding, human; conditions: for Reactivity with anti-gD2 antibody 1 / Reactivity with anti-gD2 antibody 5 / Reactivity with anti-gD2 antibody 13 / Reactivity with anti-gD2 antibody 72 / Reactivity with anti-gD2 antibody 75 / Reactivity with anti-gD2 antibody 78 / Reactivity with anti-gD2 antibody 82: immobilized gD variant
# Excerpt: Each anti-gD2 monoclonal antibody and each gD variant were expressed using an Expi293 expression system.
# gD-HVEM interactions = gD-HVEM interactions (Human herpesvirus 2, UniProt P03172, R52Q); conditions: compared to wild-type gD immune serum; FIG. 34
# Sequence of gD-HVEM interactions (P03172 26-330 R52Q): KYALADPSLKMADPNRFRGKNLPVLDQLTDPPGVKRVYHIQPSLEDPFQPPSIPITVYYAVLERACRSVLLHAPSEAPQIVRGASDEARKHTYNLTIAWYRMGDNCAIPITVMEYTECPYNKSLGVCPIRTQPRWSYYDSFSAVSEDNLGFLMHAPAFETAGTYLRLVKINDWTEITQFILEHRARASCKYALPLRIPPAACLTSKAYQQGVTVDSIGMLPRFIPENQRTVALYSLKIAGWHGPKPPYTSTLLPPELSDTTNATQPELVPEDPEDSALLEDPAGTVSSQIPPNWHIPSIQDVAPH
# Procedure: Inhibition of gD-HVEM interactions by modified gD immune serum was also analyzed. Specifically, 100 μL of gD1-305-cys-strep dimer adjusted to a concentration of 5 μg/mL with phosphate buffered saline was immobilized in a 96-well microtiter plate at 4° C. overnight. Subsequently, blocking and washing were performed as in the competitive ELISA method described above, 100 μL of IgG purified from each immune serum was added at any concentration and reacted at room temperature for one hour. Subsequently, 1 μg/mL of HVEM (Recombinant Human HVEM/TNFRSF14 Fc Chimera Protein, R&D SYSTEMS, Inc.) was diluted at any dilution fold with 1% BSA PBS, each added at 100 μL and reacted at room temperature for an additional hour. Each well was washed again with PBS-T, then, HRP-labeled antibody (anti-hFc/HRP/1% BSA PBS) was reacted. Each well was washed with PBS-T, then colored, and after the reaction was stopped with 1N sulfuric acid, absorbance of 450 nm/650 nm was measured.
# HSV-2 MS strain = test: Mouse infection-prevention test of modified gD (genital herpes infection model); format: in vivo, BALB/c mice; design: key to Determination (vs gD1-315) / Determination# (vs gD1-315): ++: minimum effective dose based on the Significant difference test in three-fold common ratio relative to gD1-315(WT) of two or more doses stronger; +: those of one dose stronger; ±: those of an equivalent value
# In short: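 Female BALB/c mice immunized s.c. three times at 2-week intervals with gD antigen at 0.1–0.003 μg/mouse/time plus MPLA (10 μg) and CpG (1 μg), n=10. Depo-Provera 2 mg s.c. given, then 5×10^5 PFU HSV-2 MS intravaginally 2 weeks post-boost; survival over 21 days, Kaplan-Meier vs saline, scored relative to wild-type gD1-315.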
# splenocytes = test: Cellular immune (T cell immune)-inducing activity, IFN-γ production response of splenocytes; format: in vivo, BALB/c mice; conditions: 3 μg/mouse; compared to the wild-type gD immune group; FIG. 25
# Procedure: Furthermore, for cellular immune (T cell immune) inducing activity, the IFN-γ production response activity (recall activity) of splenocytes (a pool sample of four cases) prepared from mice immunized with gD1-315v3-55 as an example of a modified gD antigen and wild-type gD (gD1-315) (3 μg/mouse of the administration group) was compared and analyzed. Specifically, 5 weeks old BALB/c mice were immunized with 3 μg of antigen subcutaneously in back at 2-week intervals for a total of 3 times, and splenocytes were collected 2 weeks after the final immunization. Anti-IFN-γ was immobilized in a 96-well plate with a PVDF membrane on the bottom surface and cells were seeded at 1×10^6 cells/100 μL/well. Immune antigens were added as stimulants at 10 mM and the cells were cultured at 37° C. and 5% CO2 for 20 hours. The supernatant was removed and the anti-mouse IFNγ-HRP antibody was reacted, then HRP was stained with AEC reagents to count IFNγ-producing cell numbers with an Image Analyzer (CTL).
# [2] = Experiment 1, 0.003 μg/head/time
# [3] = Experiment 1, 0.01 μg/head/time
# [4] = Experiment 1, 0.03 μg/head/time
# [5] = Experiment 2, 0.003 μg/head/time
# [6] = Experiment 2, 0.01 μg/head/time
# [7] = Experiment 2, 0.03 μg/head/time
molecule,measurement,setting,value
B1,Percentage of antibodies in immune serum competing with antibody No. 1,gD1-315,little change
same,Percentage of antibodies in immune serum competing with antibody No. 72,gD1-315,tend to decrease
same,Percentage of antibodies in immune serum competing with antibody No. 82,gD1-315,increased percentage
same,Reactivity with HVEM,HVEM,highest reactivity
same,Relative reactivity with antibody No. 82 (gD1-315 wild-type set to 1),[1]; FIG. 13,approximately 12 fold
same,Reactivity with anti-gD2 antibody 1,[1],+ ((+): 70% or more)
same,Reactivity with anti-gD2 antibody 5,[1],− ((−): less than 30%)
same,Reactivity with anti-gD2 antibody 13,[1],+ ((+): 70% or more)
same,Reactivity with anti-gD2 antibody 72,[1],− ((−): less than 30%)
same,Reactivity with anti-gD2 antibody 75,[1],− ((−): less than 30%)
same,Reactivity with anti-gD2 antibody 78,[1],− ((−): less than 30%)
same,Reactivity with anti-gD2 antibody 82,[1],+ ((+): 70% or more)
same,Inhibition of gD-HVEM interaction by immune serum IgG,gD-HVEM interactions,strong inhibitory effects
B2,Percentage of antibodies in immune serum competing with antibody No. 1,gD1-315,little change
same,Percentage of antibodies in immune serum competing with antibody No. 72,gD1-315,tend to decrease
same,Percentage of antibodies in immune serum competing with antibody No. 82,gD1-315,increased percentage
same,Mean survival time,HSV-2 MS strain; [2],>16 days
same,Significant difference test (vs saline),HSV-2 MS strain; [2],*** (*** p < 0.001)
same,Mean survival time,HSV-2 MS strain; [3],15 days
same,Significant difference test (vs saline),HSV-2 MS strain; [3],*** (*** p < 0.001)
same,Mean survival time,HSV-2 MS strain; [4],>21 days
same,Significant difference test (vs saline),HSV-2 MS strain; [4],*** (*** p < 0.001)
same,Mean survival time,"HSV-2 MS strain; Experiment 1, 0.1 μg/head/time",>21 days
same,Significant difference test (vs saline),"HSV-2 MS strain; Experiment 1, 0.1 μg/head/time",*** (*** p < 0.001)
same,Determination (vs gD1-315),"HSV-2 MS strain; Experiment 1, minimum effective dose relative to gD1-315(WT)",++
same,Mean survival time,HSV-2 MS strain; [5],7 days
same,Significant difference test (vs saline),HSV-2 MS strain; [5],N.S.
same,Mean survival time,HSV-2 MS strain; [6],>16 days
same,Significant difference test (vs saline),HSV-2 MS strain; [6],N.S.
same,Mean survival time,HSV-2 MS strain; [7],>22 days
same,Significant difference test (vs saline),HSV-2 MS strain; [7],*** (*** p < 0.001)
same,Mean survival time,"HSV-2 MS strain; Experiment 2, 0.1 μg/head/time",>22 days
same,Significant difference test (vs saline),"HSV-2 MS strain; Experiment 2, 0.1 μg/head/time",*** (*** p < 0.001)
same,Determination# (vs gD1-315),"HSV-2 MS strain; Experiment 2, minimum effective dose relative to gD1-315(WT)",+
same,Reactivity with anti-gD2 antibody 1,[1],+ ((+): 70% or more)
same,Reactivity with anti-gD2 antibody 5,[1],− ((−): less than 30%)
same,Reactivity with anti-gD2 antibody 13,[1],+ ((+): 70% or more)
same,Reactivity with anti-gD2 antibody 72,[1],− ((−): less than 30%)
same,Reactivity with anti-gD2 antibody 75,[1],− ((−): less than 30%)
same,Reactivity with anti-gD2 antibody 78,[1],− ((−): less than 30%)
same,Reactivity with anti-gD2 antibody 82,[1],+ ((+): 70% or more)
same,IFN-γ production response activity (recall activity) of splenocytes,splenocytes,higher response activity
